From paper PMC5762688 (Scientific Reports, 2018)

Biological target: Importin α2/β1 heterodimer (mouse), tagless recombinant, preformed (mouse, UniProt P52293 1-529; P70168 1-876)
Assay: […]; 10 mM Tris, 150 mM NaCl, 10% glycerol, 0.75 mM TCEP, pH 8.0; […]
Conditions: both partners purified

B1: Hendra virus V protein residues 1-405, tagless recombinant (domain or fragment)
chain: MDKLDLVNDGLDIIDFIQKNQKEIQKTYGRSSIQQPSTKDRTRAWEDFLQSTSGEHEQAEGGMPKNDGGTEGRNVEDLSSVTSSDGTIGQRVSNTRAWAEDPDDIQLDPMVTDVVYHDHGGECTGHGPSSSPERGWSYHMSGTHDGNVRAVPDTKVLPNAPKTTVPEEVREIDLIGLEDKFASAGLNPAAVPFVPKNQSTPTEEPPVIPEYYYGSGRRGDLSKSPPRGNVNLDSIKIYTSDDEDENQLEYEDEFAKSSSEVVIDTTPEDNDSINQEEVVGDPSDQGLEHPFPLGKFPEKEETPDVRRKDSLMQDSCKRGGVPKRLPMLSEEFECSGSDDPIIQELEREGSHPGGSLRLREPPQSSGNSRNQPDRQLKTGDAASPGGVQRPGTPMPKSRIMPIKKG
binding result: binds
